Reference: the supplement of paper PMC7877785
± gives the uncertainty stated by the source.

Test: self-splicing fitness, log relative to wild type (ln ratio); higher = more splicing; Tetrahymena group I intron in knt gene, E. coli kanamycin selection, DiMSum; sequences stand for … in CUCUCU…GGAGGGAAAAGUUAUCAGGCAUGCACCUGGUAGCUAGUCUUUAAACCAAUAGAUUGCAUCGGUUUAAAAGGCAAGACCGUCAAAUUGCGGGAAAGGGGUCAACAGCCGUUCAGUACCAAGUCUCAGGGGAAACUUUGAGAUGGCCUUGCAAAGGGUAUGGUAAUAAGCUGACGGACAUGGUCCUAACCACGCAGCCAAGUCCUAAGUCAACAGAUCUUCUGUUGAUAUGGAUGCAGUUCACAGACUAAAUGUCGGUCGGGGAAGAUGUAUUCUUCUCAUAAGAUAUAGUCGGACCUCUCCUUAAUGGGAGCUAGCGGAUGAAGUGAUGCAACACUGGAGCCGCUGGGAACUAAUUUGUAUGCGAAAGUAUAUUGAUUAGUUUUGGAGUACUCGUGGUCG
Outline: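 A randomised library covering all eight P1ex-region intron nucleotides was built with the intron in the knt kanamycin-resistance gene on pET-22b(+) and held in E. coli BL21(DE3). Cells were grown overnight at 37°C or 30°C on LB agar, with or without 25 μg/mL kanamycin, plus 100 μg/mL carbenicillin, 50 μM IPTG and 0.2% rhamnose, and pooled colonies were amplicon-sequenced on an Illumina HiSeq 2500. DiMSum fitness is the error-weighted combination of wild-type-normalised replicate fold changes, kanamycin versus none.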

| Sequence | self-splicing fitness (ln) (30 °C) | self-splicing fitness (ln) (37 °C) |
| --- | --- | --- |
| GCUCAGCAAUAUUACGCACG | -3.19 ± 0.31 | -1.02 ± 0.24 |
| AUAAAGCAAUAUUACGCCUC | -0.875 ± 0.14 | -0.532 ± 0.2 |
| AUACAGCAAUAUUACGUAAU | -1.43 ± 0.085 | -0.584 ± 0.12 |
| GGAGAGCAAUAUUACGUUUG | – | -2.01 ± 0.38 |
| GAGUAGCAAUAUUACGACGA | -0.0886 ± 0.15 | -0.664 ± 0.12 |
| CACUAGCAAUAUUACGAAGC | – | -2.83 ± 0.35 |
| GACUAGCAAUAUUACGUGAA | -0.567 ± 0.056 | -0.302 ± 0.083 |
| AUUCAGCAAUAUUACGCGGA | -1.73 ± 0.19 | -0.735 ± 0.14 |
| GAGGAGCAAUAUUACGUCGU | -0.318 ± 0.28 | -2.14 ± 0.34 |
| GUCUAGCAAUAUUACGUUCG | -0.604 ± 0.18 | -0.859 ± 0.17 |
| AAUCAGCAAUAUUACGAUGC | -0.408 ± 0.076 | 0.219 ± 0.096 |
| UUGCAGCAAUAUUACGGUGC | -3.79 ± 0.26 | -2.67 ± 0.26 |
| AACAAGCAAUAUUACGUGCC | -0.971 ± 0.086 | -0.503 ± 0.12 |
| ACAUAGCAAUAUUACGCAAU | -3.57 ± 0.21 | -2.67 ± 0.24 |
| AUGCAGCAAUAUUACGAUUU | -0.306 ± 0.058 | -0.153 ± 0.074 |
| GAGAAGCAAUAUUACGCACA | -0.725 ± 0.19 | 0.27 ± 0.25 |
| UCGCAGCAAUAUUACGAUGG | -0.799 ± 0.061 | -0.226 ± 0.084 |
| CAGAAGCAAUAUUACGGCAC | -3.44 ± 0.41 | -1.87 ± 0.32 |
| AUGUAGCAAUAUUACGUAUU | -3.48 ± 0.21 | -1.44 ± 0.16 |
| GGAAAGCAAUAUUACGCUUU | – | -2.56 ± 0.3 |
| CCGCAGCAAUAUUACGUGUC | -3.88 ± 0.2 | -2.34 ± 0.14 |
| CCGCAGCAAUAUUACGGUAA | -3.69 ± 0.27 | -1.99 ± 0.18 |
| GGUAAGCAAUAUUACGACCA | -1.47 ± 0.17 | -0.643 ± 0.21 |
| UACUAGCAAUAUUACGGGUA | -2.08 ± 0.14 | -1.84 ± 0.13 |
| AGGAAGCAAUAUUACGGGUC | -3 ± 0.32 | -2.31 ± 0.29 |

| Sequence | self-splicing fitness (ln) (30 °C) | self-splicing fitness (ln) (37 °C) |
| --- | --- | --- |
| GGUCAGCAAUAUUACGUUCA | -0.169 ± 0.13 | -0.487 ± 0.13 |
| CUGUAGCAAUAUUACGUGUU | -4.29 ± 0.17 | -0.79 ± 0.13 |
| CCCGAGCAAUAUUACGACCG | -4 ± 0.29 | -2.24 ± 0.29 |
| UUCUAGCAAUAUUACGUCAC | – | -2.28 ± 0.37 |
| CAUGAGCAAUAUUACGGCAA | -2.43 ± 0.17 | -2.02 ± 0.28 |
| AAAAAGCAAUAUUACGGUCU | -0.167 ± 0.057 | -0.0164 ± 0.073 |
| GGAAAGCAAUAUUACGGACG | -0.879 ± 0.087 | 0.281 ± 0.1 |
| GCCCAGCAAUAUUACGAGGA | -0.441 ± 0.075 | -0.147 ± 0.086 |
| GGCUAGCAAUAUUACGACGU | -0.0784 ± 0.15 | 1.15 ± 0.28 |
| AUCGAGCAAUAUUACGCUGU | -2.24 ± 0.18 | -3.35 ± 0.37 |
| GGAAAGCAAUAUUACGCUCA | -0.428 ± 0.12 | -0.303 ± 0.17 |
| UGCGAGCAAUAUUACGCAAA | -3.58 ± 0.28 | -2.04 ± 0.17 |
| UGCCAGCAAUAUUACGUAUA | -1.92 ± 0.11 | -1.62 ± 0.12 |
| UCCUAGCAAUAUUACGAUGU | -1.49 ± 0.06 | -0.553 ± 0.079 |
| UCUUAGCAAUAUUACGGAUU | -2.71 ± 0.41 | -2.22 ± 0.21 |
| CACUAGCAAUAUUACGCGGC | -3.47 ± 0.28 | -2.97 ± 0.25 |
| CAUCAGCAAUAUUACGAAAA | – | -2.89 ± 0.28 |
| AAUCAGCAAUAUUACGCUCG | -0.0659 ± 0.091 | -0.114 ± 0.12 |
| CAGAAGCAAUAUUACGUUAC | – | -2.72 ± 0.2 |
| AAUUAGCAAUAUUACGGUCA | 0.31 ± 0.12 | -0.629 ± 0.098 |
| UAGUAGCAAUAUUACGAUUG | -0.0683 ± 0.084 | -0.0425 ± 0.12 |
| ACGUAGCAAUAUUACGCGUC | -1.53 ± 0.22 | -1.97 ± 0.35 |
| UUUAAGCAAUAUUACGCCUC | – | -0.852 ± 0.36 |
| GUACAGCAAUAUUACGCUAU | -3.82 ± 0.29 | -1.77 ± 0.2 |
| GUGCAGCAAUAUUACGGAAA | – | -1.63 ± 0.34 |

| Sequence | self-splicing fitness (ln) (30 °C) | self-splicing fitness (ln) (37 °C) |
| --- | --- | --- |
| CCCGAGCAAUAUUACGAUGC | -4.29 ± 0.46 | -2.52 ± 0.38 |
| CUAUAGCAAUAUUACGUGGU | -3.34 ± 0.23 | -2.76 ± 0.2 |
| CGGGAGCAAUAUUACGUAAU | – | -1.95 ± 0.28 |
| ACCCAGCAAUAUUACGACGC | 0.24 ± 0.085 | 0.483 ± 0.11 |
| CCGAAGCAAUAUUACGCCCA | -2.41 ± 0.42 | – |
| AUGCAGCAAUAUUACGUGAC | -3.3 ± 0.21 | -2.08 ± 0.16 |
| AUUUAGCAAUAUUACGUUGG | -3.51 ± 0.2 | -2.62 ± 0.22 |
| UUUAAGCAAUAUUACGCCAG | -1.08 ± 0.15 | -0.457 ± 0.2 |
| GUCUAGCAAUAUUACGAGAC | -3.7 ± 0.24 | -2.34 ± 0.3 |
| UACAAGCAAUAUUACGCGCC | -1.66 ± 0.13 | -0.798 ± 0.13 |
| ACCUAGCAAUAUUACGGAGC | -2.67 ± 0.12 | -1.28 ± 0.14 |
| CUUGAGCAAUAUUACGUAUU | – | -3.02 ± 0.37 |
| ACUAAGCAAUAUUACGCCAC | -2.45 ± 0.38 | – |
| AUCUAGCAAUAUUACGAAGA | -1.45 ± 0.14 | -1.67 ± 0.15 |
| GGAUAGCAAUAUUACGAUAC | -1.23 ± 0.13 | -1.8 ± 0.16 |
| GUGCAGCAAUAUUACGUUCC | -2.72 ± 0.18 | -1.05 ± 0.25 |
| UAGGAGCAAUAUUACGCAGC | – | -2.79 ± 0.36 |
| UGGCAGCAAUAUUACGGCUC | -0.609 ± 0.082 | -0.683 ± 0.11 |
| CUGAAGCAAUAUUACGUGAG | -0.269 ± 0.044 | 0.305 ± 0.065 |
| GCUCAGCAAUAUUACGAGAC | -3.42 ± 0.32 | -0.338 ± 0.2 |
| CAACAGCAAUAUUACGUCCC | -1.72 ± 0.14 | -1.46 ± 0.2 |
| GGUCAGCAAUAUUACGACUU | -0.64 ± 0.081 | -1.09 ± 0.087 |
| CAAUAGCAAUAUUACGAUAG | -0.926 ± 0.069 | -0.00227 ± 0.1 |
| GUACAGCAAUAUUACGCUAC | – | -2.64 ± 0.48 |
| GGUCAGCAAUAUUACGGUCU | -1.28 ± 0.12 | -0.217 ± 0.13 |

| Sequence | self-splicing fitness (ln) (30 °C) | self-splicing fitness (ln) (37 °C) |
| --- | --- | --- |
| CAUAAGCAAUAUUACGACAA | -3.05 ± 0.28 | -1.59 ± 0.19 |
| AGCAAGCAAUAUUACGGUAA | -2.53 ± 0.17 | -1.38 ± 0.12 |
| CAACAGCAAUAUUACGACUA | -1.35 ± 0.1 | -0.653 ± 0.092 |
| CGUUAGCAAUAUUACGACGA | -1.36 ± 0.19 | -1.3 ± 0.19 |
| ACUUAGCAAUAUUACGAGGU | -3.47 ± 0.22 | -1.96 ± 0.21 |
| UAGUAGCAAUAUUACGAAAU | -2.89 ± 0.33 | – |
| CCGUAGCAAUAUUACGCUCG | -1.1 ± 0.2 | -0.457 ± 0.23 |
| GCGCAGCAAUAUUACGGUAA | -1.55 ± 0.11 | 0.236 ± 0.11 |
| UGCUAGCAAUAUUACGCGGC | -3.02 ± 0.38 | – |
| AACUAGCAAUAUUACGGUGA | -1.58 ± 0.073 | -0.833 ± 0.099 |
| GCAAAGCAAUAUUACGUAGC | -4.47 ± 0.46 | -1.71 ± 0.22 |
| UAGAAGCAAUAUUACGUAGG | -1.78 ± 0.093 | -1.61 ± 0.16 |
| ACAAAGCAAUAUUACGGCAG | -1.1 ± 0.064 | -0.658 ± 0.088 |
| UGCGAGCAAUAUUACGCGUG | -4.3 ± 0.42 | -1.12 ± 0.25 |
| ACAAAGCAAUAUUACGGGUC | -3.18 ± 0.14 | -1.76 ± 0.2 |
| UGCAAGCAAUAUUACGUGCC | -0.791 ± 0.092 | -1.12 ± 0.12 |
| UGAAAGCAAUAUUACGGCAU | -1.43 ± 0.076 | -0.236 ± 0.1 |
| CUGAAGCAAUAUUACGAUGG | -0.0919 ± 0.065 | 0.123 ± 0.095 |
| AAUUAGCAAUAUUACGCUUG | -0.701 ± 0.07 | 0.227 ± 0.095 |
| AGGCAGCAAUAUUACGAUUG | -3.13 ± 0.17 | -2.4 ± 0.22 |
| CGGCAGCAAUAUUACGGCUG | -3.69 ± 0.47 | -2.23 ± 0.27 |
| UUGCAGCAAUAUUACGAACA | -0.626 ± 0.17 | -1.24 ± 0.15 |
| GGUUAGCAAUAUUACGGCUC | -2.05 ± 0.33 | -0.541 ± 0.46 |
| CUACAGCAAUAUUACGGCCA | -3 ± 0.28 | – |
| GUACAGCAAUAUUACGGUAU | -4.07 ± 0.18 | -2.45 ± 0.16 |
